# Reference: patent US20160340704A1, “METHOD OF MAKING A BENZYLISOQUINOLINE ALKALOID (BIA) METABOLITE, ENZYMES THEREFORE” (VALORBEC SOCIÉTÉ EN COMMANDITE, priority 2014, published 2016)
# How the values were obtained:
# [1] = system: acetylcholinesterase; settings: cited from earlier work
# [2] = system: (S)-scoulerine; experiment: TNMT N-methylation test: GCY1101 versus GCY1127 fed (S)-scoulerine; format: cell-based, Saccharomyces cerevisiae
# Procedure: When cells of the Block 2-Block 3 double integrant were incubated with (S)-scoulerine, compounds with exact masses of 342.1710 m/z and 340.1548 m/z were detected in addition to expected sanguinarine pathway intermediates. These exact masses, and their CIDs, correspond to N-methylscoulerine and N-methylcheilanthifoline, respectively^36. […] To determine whether TNMT was responsible for the N-methylation of cheilanthifoline and scoulerine, the Block 2 integrant strain harbouring CPR on a plasmid (strain GCY1101) was compared with the Block 2 integrant strain harbouring both CPR and TNMT on a plasmid (strain GCY1127).
# Because the applicants lacked standards to quantify the N-methylated products and since the three compounds are similar in structure, they assumed equal ionization efficiency and estimated their relative proportions by peak area: when strain GCY1127 is fed (S)-scoulerine, the expected product N-methylstylopine is 33%, while N-methylscoulerine is 7% and N-methylcheilanthifoline is 60% (FIG. 8B).
# [3] = system: scoulerine; experiment: CYP719 substrate affinity test on scoulerine in GC1333 (integrated PsCPR): Ring A / Ring B closure; format: cell-based, Saccharomyces cerevisiae; settings: single CYP719 with PsCPR, 16 hours
# Procedure: To broadly identify CYP719 activities on BIAs, a substrate affinity test was performed with the protoberberine BIA scoulerine. CYP719s have been described to form methylenedioxy bridges on BIAs from an alcohol group and a methyl group on adjacent carbons. Two different rings can be made on scoulerine, which can be called “Ring A” and “Ring B”, with the BIA products being called “nandinine” and “cheilanthifoline”, respectively (see FIG. 19). CYP719-catalyzed formation of both Ring A and Ring B of scoulerine (“Ring A-closing activity” and “Ring B-closing activity”) has been identified and published. Certain CYP719 enzymes included in the affinity tests have published ring A and Ring B activities.
# (§1) Plasmids harboring CYP719s were transformed into either GC1333 containing an integrated PsCPR (FIG. 10A) or GC1316 containing an integrated PsCPR and an integrated PsCFS (FIG. 10B). Strain GC1333, harboring PsCPR integrated into the chromosome, was transformed with pBOT plasmids, with GFP removed, harboring individual CYP719s (CYP719 EX41-105). (See Tables 7-8 below presenting the nature and activity of these CYP719s).
# The resulting CYP719-harboring strains (strains SF41-105) were supplemented with scoulerine. After 16 hours, BIAs were extracted and the molar ratio of scoulerine to downstream BIAs was calculated (FIG. 10A).
# [4] = Microsomal cytochrome P450 enzyme assay of PsCFS and PsSPSΔN incubated with (S)-scoulerine; format: biochemical, Papaver somniferum; settings: microsomes with PsCPR; 125 μM (S)-scoulerine, 500 μM NADPH
# Procedure: The pESC-CPR vector encoding opium poppy cytochrome P450 reductase (PsCPR) fused to a c-Myc tag was used for the heterologous expression of plant proteins in S. cerevisiae^25. The amplicon was inserted into NotI and SpeI restriction sites of pESC-CPR in-frame with a FLAG-tag sequence yielding pESC-CPR/CFS. […]
# Analysis of enzyme assays was performed using an Agilent™ 1200 liquid chromatography system equipped with a 6410 triple-quadrupole mass spectrometer (Agilent Technologies; Santa Clara, Calif.). […] Scoulerine, cheilanthifoline, and stylopine were detected in multiple reaction monitoring (MRM) mode using a collision energy of 25 eV and monitored transitions of m/z 328→178, 326→178 and 324→176, respectively.
# Constructs for the heterologous expression of PsCFS and PsSPS in S. cerevisiae were assembled in a vector harbouring PsCPR (Table 1 above). […] No conversion of scoulerine was detected in the negative control. […]
# [5] = system: scoulerine; experiment: CYP719s in GC1316 (integrated PsCPR and PsCFS) supplemented with scoulerine; format: cell-based, Saccharomyces cerevisiae
# Excerpt: as §1
# Plasmids harboring individual CYP719s were transformed into strain GC1316, which harbored PsCPR and PsCFS integrated into the genome. Strains were supplemented with scoulerine and after 16 hours total BIAs were extracted and the molar ratio was compared (FIG. 10B). The four possible BIAs that could be extracted were scoulerine, the single Ring A product nandinine, the single Ring B product cheilanthifoline, and the double Ring A, Ring B product stylopine.
# [6] = system: nandinine; experiment: CYP719 Ring B closure of nandinine to stylopine in GC1333; format: cell-based, Saccharomyces cerevisiae; settings: nandinine generated in vivo from scoulerine, in TE
# Procedure: FIG. 11A-B: showing conversion of (S)-cheilanthifoline (FIG. 11A) or (S)-nandinine (FIG. 11B) to (S)-stylopine by purchased CYP719s. Plasmids harboring CYP719s were transformed into GC1333 containing an integrated PsCPR. Strains were incubated with the appropriate BIA overnight, and then total BIAs were extracted and total molar ratios were compared. PsSPSΔN was used as a control.
# The 10 CYP719s with 95% activity on Ring A of scoulerine and the 10 CYP719s with activity on Ring B of scoulerine were tested for activity on cheilanthifoline and nandinine, respectively, in order to generate a branched stylopine synthesis pathway. […] CYP719s PsCFS and EX101, capable of converting >98% of scoulerine to cheilanthifoline and nandinine, respectively, were incubated with scoulerine. After 16 h, cells were pelleted and the supernatant fraction was collected. The supernatant was then applied to fresh yeast strains in order to supplement them with either TE containing nandinine or cheilanthifoline as necessary.
molecule,measurement,setting,value
COc1cc2c(cc1O)[C@@H]1Cc3ccc(OC)c(O)c3C[N@+]1(C)CC2 [N-methylscoulerine],described activity,[1],acetylcholinesterase inhibitor
"TNMT: Papaver somniferum tetrahydroprotoberberine cis-N-methyltransferase, SEQ ID NO: 58 (protein, listed as Papaver somniferum) MGSIDEVKKESAGETLGRLLKGEIKDEELKKLIKFQFEKRLQWGYKSSHQEQLSFNLDFIKSLKKMEMSGEIETMNKETYELPSEFLEAVFGKTVKQSMCYFTHESATIDEAEEAAHELYCERAQIKDGQTVLDIGCGQGGLVLYIAQKYKNCHVTGLTNSKAQVNYLLKQAEKLGLTNVDAILADVTQYESDKTYDRLLMIEAIEHMKNLQLFMKKLSTWMTKESLLFVDHVCHKTFAHFFEAVDEDDWYSGFIFPPGCATILAANSLLYFQDDVSVVDHWVVNGMHMARSVDIWRKALDKNMEAAKEILLPGLGGSHETVNGVVTHIRTFCMGGYEQFSMNNGDEWMVAQLLFKKK",substrate acceptance for N-methylation,[2],accepts both scoulerine and cheilanthifoline as substrates
"EX61: CYP719 from Eschscholzia californica, Q50LH3.1, SEQ ID NO: 340 (protein, listed as Eschscholzia californica) MEEMKILMMNNPWILTATATTLLISIFLFFTRKSSKMVWPAGPKTLPIIGNMHLLGGTALQVVLHNLAKVHGSVMTIWIGSWRPVIVVSDIERAWEVLVNKSSDYSARDMPDITKIISADWKTISTSDSGPHWTNLRKGLQNVALSPHNLAAQFQFQEKDMTKMIQTLQEEARNNNGIVKPLDHMKKATLRLISRLVFGQDFNNDKYVDDMHLAIEELIRVSGYARLAEAFYYAKYLPSHKKAVREVEEAQRRVQNLVSPFLSLNPPTNTYLHFLRSQKYDDEVIIFAIFEAYLLGVDSTSLTTAWALAFLIRESNVQEKLYQELESFASKMDRKILKVEDINKLQYLQAVIKETMRMKPIAPLAIPHKACRDTSLMGKKIDKGTRVMVNIYALHHNKNVFNDPFKFMPERFMKVDSQDANGKAMEQSLLPFSAGMRICAGMELGKLQFSFALANLAYAFKWSCVADGVLPDMSDQLGFVLLMKTPLEARINRRN",conversion of scoulerine to the Ring A product nandinine (Ring A closure),[3],90%
"EX84: Papaver somniferum cheilanthifoline synthase, ADB89213.1, SEQ ID NO: 363 (protein, listed as Papaver somniferum) MEVTFWLITCGVVVAFALAKLLFGKKSSMSTMEWPSGPKTLPIIGNLHQLGGEAFHVCLANLAKVYGGVFTIWVGSWRPFIVISDVDKAWEVLVNKSSDYSARDMPDITKIISANWKNISHGDSGPFWHNLRKGLQGVALTPFNVASQYHLQERDMQNLIKSMKKKASQKNGILKPLDYVKEETVRLLSRLIFSQEFVDEDFVVGMHQALDELVSISGYASLADAFKFCENLPSHKKTIRAVHAIKIRFDNLIRPHIVSNPPTNTYLHFLLSQDFSEDVIISAILEVYDLGVDSTASTTVWALTFLVREQKIQEKLYREINNVTGGKRPVKVEDLNKLPYLQAVMKETMRMKPIAPMAIPHKASKDTSLMGKKINKGTVVMVNLYAIHHNPAVFPEPYKFMPERFLKDANSDGSLGDIKKMESSLLAFSAGMRICAGMELGKLQLAFGLASLVNEFKWDCVAEGKLPDLSEEHCFILLMKNPLEAKITPRIH",conversion of (S)-scoulerine by microsomal proteins (LC-MS products),[4],converted to cheilanthifoline
same,conversion of scoulerine to cheilanthifoline,[5]; PsCFS alone in GC1316,100%
same,activity on nandinine,[5]; inferred from residual nandinine in GC1316 strains,little to no activity on nandinine
same,conversion of nandinine to stylopine,[6],12%
"EX46: CYP719 from Corydalis cheilanthifolia, SEQ ID NO: 325 (protein, listed as Corydalis cheilanthifolia) MVNAVAEILTEKPWLLPATLLAVIAIAKFFLGKSSTMKWPIGPKTLPIIGNMHQLGGTDLQVVLANLAKTYGTIMTIWVGSWRPMIVLSDIEKAWEVLVNKSSDYSGRAMPEITEIISAKGKTISTSDSGPHWSNLRKGLQNVALSPHNIAAQSRFQESDITKMIKTLKQEAASNNGIVQPLDHLKKSTVRLISRLIFGQDFDDDEYVEAMHLAVEELIRVSGYARLAEAFYYAKYLPSHKRAVSEVWEANRRVKRIVKPRLSANPPPNCYLHFLSSQDYSEEMIIFAIFEAYLLGVDSTSSTTAWALGFLIREPKVQERLYQELKNCAGENGLIKVEDINKLPYLQAVLKETMRMKPIAPLAIPHKAVRETSLAGNKVEPGTRVMVNLYAIHHNPKVWIDPHKFKPERFLQGEENGGGNLKLMEQSLLPFSAGMRTCAGMELGKLQFGFSLANLVNAFQWDCAKKGMFPDMSDLLGFVLLMKTPLQAKIVPRGSPSINGY",conversion of scoulerine to the Ring A product nandinine (Ring A closure),[3],66%
